Target: the molecule itself
Test: cryo-EM structure; single-particle cryo-EM of purified AtOSCA1.2 in 25 mM HEPES pH 7.4, 150 mM NaCl, 0.1% digitonin; 3.68 Å

B1: OSCA1.2 from Arabidopsis thaliana (AtOSCA1.2) (natural protein, UniProt Q5XEZ5 1-771, looked up)
chain: MATLQDIGVSAGINILSAFVFFIIFAVLRLQPFNDRVYFSKWYLKGLRSSPARGGAFAQRFVNLDFRSYMKFLNWMPEALKMPEPELIDHAGLDSVVYLRIYWLGLKIFTPIAVLAWAVLVPVNWTNNTLEMAKQLRNVTSSDIDKLSVSNIPEYSMRFWTHIVMAYAFTIWTCYVLMKEYETIANMRLQFVASEARRPDQFTVLVRNVPPDADESVSELVEHFFLVNHPDHYLTHQVVCNANKLADLVKKKKKLQNWLDYYQLKYARNNSQRIMVKLGFLGLWGQKVDAIEHYIAEIDKISKEISKEREEVVNDPKAIMPAAFVSFKTRWAAAVCAQTQQTRNPTQWLTEWAPEPRDVFWSNLAIPYVSLTVRRLIMHVAFFFLTFFFIVPIAFVQSLATIEGIVKAAPFLKFIVDDKFMKSVIQGFLPGIALKLFLAFLPSILMIMSKFEGFTSISSLERRAAFRYYIFNLVNVFLASVIAGAAFEQLNSFLNQSANQIPKTIGVAIPMKATFFITYIMVDGWAGVAGEILMLKPLIMFHLKNAFLVKTDKDREEAMDPGSIGFNTGEPRIQLYFLLGLVYAPVTPMLLPFILVFFALAYIVYRHQIINVYNQEYESAAAFWPDVHGRVIAALVISQLLLMGLLGTKHAALAAPFLIALPVLTIGFHHFCKGRYEPAFIRYPLQEAMMKDTLETAREPNLNLKGYLQNAYVHPVFKGDEDDYDIDDKLGKFEDEAIIVPTKRQSRRNTPAPSIISGDDSPSLPFSGKLV
notes: OSCA1.2 (alias CSC1), Arabidopsis thaliana, full length, 771 amino acids; Homodimer in the cryo-EM structure; 683 residues were modelled and the 54 carboxyl-terminal residues are missing from the model; also called CSC1; source: Sf-9 insect cells (baculovirus), purified (digitonin, Ni-NTA, Superose 6 SEC)
stoichiometry N: 2

From paper PMC6265326, “Structure of the hyperosmolality-gated calcium-permeable channel OSCA1.2” (Nature Communications, 2018)
